Laboratory results: paper PMC8299219 (Cell, 2021)
Where a chain is given by its changes, count along the chain named.

B1: G32L8 (antibody, V domains shown)
VH: EVQLVQSGAEVKKPGESLKISCKGSGYSFTSYWIGWVRQMPGKGLEWMGIIYPGDSDTRYSPSFQGQVTISADKSISTAYLQWSSLKASDTAMYYCARRYAVYSSGWYYWYFDLWGRGTLVTVSS
VL: not shown
B2: C102A5 (antibody, V domains shown)
VH: QVQLVESGGGVVQPGRSLRLSCAASGFTFSTYAMHWVRQAPGKGLEWVAVISYDGSNKYYADSVKGRFTISRDNSKNTLYLQMNSLRAEDTAVYYCARDLGTYRWFDPWGQGTLVTVSS
VL: DIQMTQSPSSVSASVGDRVTITCRASQGISSWLAWYQQKPGKAPKLLIYAASSLQSGVPSRFSGSGSGTDFTLTISSLQSEDFATYYCQQANSFPSFTFGPGTKVEIK
B3: C12B5 (antibody, V domains shown)
VH: B2 VH with T31S, A33G, S52W, G101A, T102V, Y103A, R104T, W105Q, F106N, P108Y
VL: SYELTQPPSVSVSPGQTARITCSGDALPKKYAYWYQQKSGQAPVLVIYEDGKRPSGIPERFSGSSSGTMATLTISGAQVEDEADYYCYSTDSSGNRWVFGGGTKLTVL
B4: C81E12 (antibody, V domains shown)
VH: B2 VH with T31S, A33G, S52W, G101R, T102L, Y103G, R104D, W105H, P108Y
VL: B3 VL with G51S, R96H, W97R
B5: G32B2 (antibody, V domains shown)
VH: QLQLQESGPGLVKPSETLSLTCTVSGGSISSSSYYWGWIRQPPGKGLEWIGSIYYSGSTYYNPSLKSRVTISVDTSKNQFSLKLSSVTAADTAVYYCARTVASYYDSSAYLTLGYFDYWGQGTLVTVSS
VL: SYELTQPPSVSVSPGQTARITCSGDALPKKYAYWYQQKSGQAPVLVIYEDSKRPSGIPERFSGSSSGTMATLTISGAQVEDEADYYCYSTDSSGNHNYVFGTGTKVTVL
B6: C7I5 (antibody, V domains shown)
VH: EVQLLESGGGLVQPGGSLRLSCAASGFIFSNYVVSWVRQAPGKGLEWVSGISVNGDTTFYADSVKGRFTISRDNSKNTLYLQMNSLRAEDTAVYYCAKVRGYCSGGRGCMDVWGQGTTVTVSS
VL: DIQLTQSPSSLSPSVGDRVTITCRASQDIGNTLAWYQQKPGKAPNLLIYDASSLQSGVPSRFSGTVSGTDFTLTITSLQPEDFATYFCQQFNTYPALTFGGGTKVEIK
B7: C83B10 (antibody, V domains shown)
VH: QVQLVESGGGVVQPGRSLRLSCAASGFTFSIYAIHWVRQAPGKGLEWVALISYDGSNKYYADSVKGRFTISRDNSKNTLYLQMNSLRAEDTAVYYCARARGGSYSDAFDIWGQGTMVTVSS
VL: not shown
B8: C30B10 (antibody, V domains shown)
VH: QVQLVESGGGVVQPGRSLRLSCAASGFTFSSYGMHWVRQAPGKGLEWVAVIWYDGSNKYYADSVKGRFTISRDNSKNTLYLQMNSLRAEDTAVYYCARDYPFSGSYYGDAFDIWGQGTMVTVSS
VL: B3 VL with G51S
B9: G32B4 (antibody, V domains shown)
VH: not shown
VL: B3 VL with G51S, R96L
B10: C81E9 (antibody, V domains shown)
VH: QVQLVESGGGVVQPGRSLRLSCAASGFTFSSYAMHWVRQAPGKGLEWVAVISYDGSNKYYADSVKGRFTISRDNSKNTLFLQMNSLRPEDTAVYYCIAARNYYYMDVWGKGTTVTVSS
VL: not shown
B11: C30A8 (antibody, V domains shown)
VH: QVQLVESGGGLVKPGGSLRLSCAASGFTFSDSYMSWIRQAPGKGLEWVSYISSSSSYTNYADSVKGRFTISRDNAKNSLYLQMNSLRAEDTAVYYCARDRVPPYSSGWYYFDYWGQGTLVTVSS
VL: QSALTQPASVSGSPGQSITISCTGTSSDVGGYNYVSWYQQHPGKAPKLMIYEVSNRPSGVSNRFSGSKSDNTASLTISGLQAEDEADYYCSSYTSSSTYVFGTGTKVTVL
B12: C12I7 (antibody, V domains shown)
VH: QVQLQESDPGLVQPSETLSLTCTVSRGSISSYYWSWIRQPPGKGLEWIGYIYYSGSTNYNPSLKSRVTISVDTSKNQFSLKLSSVTAADTAVYYCARVGYYDSSAYLKLGSIDYWGQGILVTVSS
VL: not shown
B13: C93E12 (antibody, V domains shown)
VH: QVQLVEAGGGVVQPGTSLRLSCAASGFTFSNYAIQWVRQAPGKGPEWVALISYDGSNKYYADPVKGRFTLSRDNSKNTLYLQMNSLRAEDTAVYYCARGIRGGYNDAFDIWGQGTMVTVSS
VL: DIQLTQSPSFLSASVGDRVTITCRASQGISSYLTWYQQKPGKAPKLLIYAASTLQSGVPSRFSGSGSGTEFTLTISSLQPEDFATYYCQQVTSYPITFGQGTRLEIK
B14: C882C6 (antibody, V domains shown)
VH: QVQLVESGGGVVQPGRSLRLSCAASGFTFSNFAIHWVRQAPGKGLEWVAVVSYDGGNKYYADSVKGRFTISRDNSKNTLYLQMNSLRAEDTSVYYCARSGSGNYYGWFDPWGQGTLVTVSS
VL: QSALTQPASVSGSPGQSITISCTGTSSDVGSYNLVSWYQQHPGKAPKLMIYEGSKRPSGVSNRFSGSKSGNTASLTISGLQAEDEADYYCCSYAGSSTWVFGGGTKLTVL
B15: G32M2 (antibody, V domains shown)
VH: QVQLVESGGGVVQPGRSLRLSCAASGFTFSSYAMHWVRQAPGKGLEWVAVISYDGNNKYYADSVKGRFTISRDNSKNTLYLQMNSLRAEDTAMYYCARAKGGGYYYGMDVWGQGTTVTVSS
VL: SYELTQPPSVSVAPGQTARITCGGNNIGSKSVHWYQQKPGQAPVLVVYDDSDRPSGIPERFSGSNSGNTATLTISRVEAGDEADYYCQVWDSSSDPYWVFSGGTKLTVL
B16: C81C3 (antibody, V domains shown)
VH: EVQLVQSGAEVKKPGESLRISCKGSGYSFTSYWISWVRQMPGKGLEWMGRIDPSDSYTNYSPSFQGHVTISADKSISTAYLQWSSLKASDTAMYYCAIHGYYDSSGYYLPHGFDIWGQGTMVTVSS
VL: B15 VL with Q16K, K30T, S51G, Y97N, S101G
B17: G32M1 (antibody, V domains shown)
VH: QVQLVESGGGVVQPGRSLRLSCVASGFTFSSYGMHWVRQAPGKGLEWVAVIWYDGSNKYYADSVKGRFTISRDNSKNTLYLQMNSLRAEDTAVYYCAREYRSSWYNWFDSWGQGTLVTVSS
VL: SYELTQPPSVSVSPGQTARITCSGDALPKQYAYWYQQKPGQAPVMVIYKDSERPSGIPERFSGSSSGTTVTLTISGVQAEDEADYYCQSADSSGTSYVFGTGTKVTVL
B18: G32C5 (antibody, V domains shown)
VH: QVQLVESGGGVVQPGRSLRLSCAASGFTFSSYAMHWVRQAPGKGLEWVAVISYDGSNKYYADSVKGRFTISRDNSKNTLYLQMNSLRAEDTAVYYCARGKSGSYFGSFDYWGQGTLVTVSS
VL: not shown
B19: C81H4 (antibody, V domains shown)
VH: B7 VH with I31S, A33G, I34M, L50V, Y80C, R98K, A99G, S105Y
VL: not shown
B20: mAb 4A8 (published; Chi et al., 2020) (antibody, V domains shown)
VH: QVQLVESGAEVKKPGASVKVSCKVSGYTLTELSMHWVRQAPGKGLEWMGGFDPEDGETMYAQKFQGRVTMTEDTSTDTAYMELSSLRSEDTAVYYCATSTAVAGTPDLFDYYYGMDVWGQGTTVTVSS
VL: EIVMTQSPLSSPVTLGQPASISCRSSQSLVHSDGNTYLSWLQQRPGQPPRLLIYKISNRFSGVPDRFSGSGAGTDFTLKISRVEAEDVGVYYCTQATQFPYTFGQGTKVDIK

The binders below were run against T1, SARS-CoV-2 S ectodomain trimer, prefusion-stabilized, 2P variant (Wrapp et al., 2020) (SARS-CoV-2, Wuhan-Hu-1, UniProt P0DTC2, stabilised) (assay: not given).

Row | Binder | binding result
1 | B1 | binds
2 | B2 | binds
3 | B3 | binds
4 | B4 | binds
5 | B5 | binds
6 | B6 | binds
7 | B7 | binds
8 | B8 | binds
9 | B9 | binds
10 | B10 | binds
11 | B11 | binds
12 | B12 | binds
13 | B13 | binds
14 | B14 | binds
15 | B15 | binds
16 | B16 | binds
17 | B17 | binds
18 | B18 | binds
19 | B19 | binds

What follows are binders tested against T1, SARS-CoV-2 S ectodomain trimer, … (assay: ELISA).

Row | Binder | binding result
20 | B20 | binds
